Ends that are not written are not given here.

One test addresses T1, MRGA1-GFP fusion protein (mouse, UniProt Q91WW5 1-304).
T1 sequence: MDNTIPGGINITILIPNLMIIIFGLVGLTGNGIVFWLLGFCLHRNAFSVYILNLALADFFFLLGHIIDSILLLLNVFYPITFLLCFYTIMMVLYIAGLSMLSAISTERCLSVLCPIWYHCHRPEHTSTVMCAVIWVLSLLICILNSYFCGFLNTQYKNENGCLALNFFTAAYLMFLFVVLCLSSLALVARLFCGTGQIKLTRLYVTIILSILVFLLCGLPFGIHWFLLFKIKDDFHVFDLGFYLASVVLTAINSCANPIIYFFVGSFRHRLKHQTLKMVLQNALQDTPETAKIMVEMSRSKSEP
Nature of the test: cell-based or functional assay.

The target in test [1] is T2, MRGA4-GFP fusion protein (mouse) (UniProt Q91WW2).
T2 sequence: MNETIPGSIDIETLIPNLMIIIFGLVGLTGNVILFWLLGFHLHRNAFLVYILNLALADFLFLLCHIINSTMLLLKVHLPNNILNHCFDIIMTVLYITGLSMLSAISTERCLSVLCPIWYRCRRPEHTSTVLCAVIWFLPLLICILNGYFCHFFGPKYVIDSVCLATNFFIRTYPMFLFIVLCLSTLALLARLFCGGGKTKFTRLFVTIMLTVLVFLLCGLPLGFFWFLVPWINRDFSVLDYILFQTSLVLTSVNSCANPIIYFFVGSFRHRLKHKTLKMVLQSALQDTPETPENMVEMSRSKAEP
Nature of the test: cell-based or functional assay.

On to ACTH (peptide), for which the EC50, Ca2+ dose-response in HEK-Galpha15 cells with MRGA1-GFP fusion protein turned out to be 60 nM; in test [1], 200 nM.

As for NPFF (peptide), in the test with MRGA1-GFP fusion protein, the EC50, Ca2+ dose-response in HEK-Galpha15 cells was 200 nM.

On to AGEGLNSQFWSLAAPQRF-NH2 (peptide, UniProt O15130 93-110, looked up, species assumed, ends and bridges not checked) [NPAF], for which the EC50, Ca2+ dose-response in HEK-Galpha15 cells in test [1] worked out at 60 nM.

With FLRF-NH2 [FLRFamide], the “EC50, Ca2+ dose-response in HEK-Galpha15 cells” value with MRGA1-GFP fusion protein is roughly 20 nM.

Values taken from patent US20030092035A1 (CALIFORNIA INSTITUTE OF TECHNOLOGY, published 2003).
